Source: article doi:10.1101/2022.10.03.510161

Columns and labels:
[1] = molecular target: P74-26 TTP L229A variant (bacteriophage P74-26); assay: light scattering of tube assembly
[2] = molecular target: P74-26 tail tube protein (TTP), gp93, in the tail tube of purified virions (bacteriophage P74-26); assay: cryo-EM structure
[3] = molecular target: P74-26 tail tube protein (TTP), gp93, recombinant wild type (bacteriophage P74-26); assay: light scattering of tube assembly
[4] = molecular target: P74-26 tail tube protein (TTP), gp93, recombinant wild type (bacteriophage P74-26); assay: SEC-MALS

P74-26 TTP L229A variant (natural protein)
tube formation rate relative to WT [1]: 10 % of the WT

P74-26 tail tube protein (TTP), gp93, in the tail tube of purified virions (natural protein)
stoichiometry N [2]: 3

P74-26 tail tube protein (TTP), gp93, recombinant wild type (natural protein)
tube growth rate at 37 °C relative to 20 °C (x the 20°C rate) [3]: 68
tube growth rate at 50 °C relative to 20 °C (x the 20°C rate) [3]: 3520
mass fraction of the hexamer peak [4]: 6%
stoichiometry N [4]: 6
